The target of test [1] is T1, Human ROBO2 KSR mutant overexpressed on HEK293 cells (human, UniProt Q9HCK4 22-1378).
T1 construct: R100K and K102R already in the entry
T1 sequence: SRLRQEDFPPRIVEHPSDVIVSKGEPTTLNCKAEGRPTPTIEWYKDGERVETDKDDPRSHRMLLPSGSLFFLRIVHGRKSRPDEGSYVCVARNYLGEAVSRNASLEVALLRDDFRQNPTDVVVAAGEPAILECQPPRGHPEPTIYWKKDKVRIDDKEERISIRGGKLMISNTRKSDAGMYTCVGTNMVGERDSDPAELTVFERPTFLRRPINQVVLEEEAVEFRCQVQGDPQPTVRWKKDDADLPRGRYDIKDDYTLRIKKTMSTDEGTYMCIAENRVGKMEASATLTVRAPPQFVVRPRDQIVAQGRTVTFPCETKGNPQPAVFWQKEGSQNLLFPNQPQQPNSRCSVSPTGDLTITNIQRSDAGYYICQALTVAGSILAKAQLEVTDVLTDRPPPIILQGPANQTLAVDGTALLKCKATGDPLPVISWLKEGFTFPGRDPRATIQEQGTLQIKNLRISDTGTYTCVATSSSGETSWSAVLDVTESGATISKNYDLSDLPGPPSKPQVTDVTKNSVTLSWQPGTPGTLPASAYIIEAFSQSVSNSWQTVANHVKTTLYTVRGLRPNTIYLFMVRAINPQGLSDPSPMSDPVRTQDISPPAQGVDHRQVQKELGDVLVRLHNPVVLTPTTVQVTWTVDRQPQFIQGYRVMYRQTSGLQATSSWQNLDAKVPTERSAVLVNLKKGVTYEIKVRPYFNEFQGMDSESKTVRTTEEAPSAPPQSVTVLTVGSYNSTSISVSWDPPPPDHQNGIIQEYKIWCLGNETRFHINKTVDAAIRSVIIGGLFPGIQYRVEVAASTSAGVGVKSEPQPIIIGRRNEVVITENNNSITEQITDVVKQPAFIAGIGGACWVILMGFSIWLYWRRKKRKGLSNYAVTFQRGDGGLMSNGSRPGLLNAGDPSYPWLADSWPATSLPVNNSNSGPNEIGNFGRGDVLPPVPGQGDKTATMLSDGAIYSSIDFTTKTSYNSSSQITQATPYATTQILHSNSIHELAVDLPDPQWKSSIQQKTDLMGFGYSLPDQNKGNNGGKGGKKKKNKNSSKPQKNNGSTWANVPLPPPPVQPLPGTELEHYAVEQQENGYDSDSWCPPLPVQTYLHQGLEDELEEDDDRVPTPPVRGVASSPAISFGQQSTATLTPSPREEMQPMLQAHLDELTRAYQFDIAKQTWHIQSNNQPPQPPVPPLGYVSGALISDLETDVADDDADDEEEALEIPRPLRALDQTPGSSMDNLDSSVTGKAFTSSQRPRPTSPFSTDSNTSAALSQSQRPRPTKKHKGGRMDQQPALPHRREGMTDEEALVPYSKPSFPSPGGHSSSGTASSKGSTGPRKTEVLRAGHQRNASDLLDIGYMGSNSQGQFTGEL
In words: flow cytometry on HEK293 cells overexpressing the ROBO2-KSR mutant. The method, then:
Binding of the antibodies was detected using a secondary fluorochrome conjugated anti-human IgG F(ab′)₂ antibody and samples were analyzed on a Fortessa cytometer (BD Biosciences). The fold ROBO2 selectivity was calculated as the geometric mean fluorescence intensity (Geo MFI) with ROBO2 cells/Geo MFI with ROBO1 cells. A fold change higher than 3 was considered to be ROBO2 specific (Table 2, Fold Selectivity). Some affinity matured clones had increased ROBO1 reactivity, for example Abcs 55, CTI-R2-10 and CTIR2-13.
Based upon several criteria, Abcs25 and Abcs35 were selected for further characterization. Using flow cytometry, improvement in the binding EC₅₀ to human ROBO2 relative to the parental 93H2 was evaluated. […] Using HEK293 cells overexpressing either cynomolgus monkey ROBO2 or rat ROBO2, the relative dose-dependent binding of 93H2, Abcs25 and Abcs35 was evaluated as described above. […] Association of ROBO2 Ig1-Ig2-His (ROBO2) was measured over 5 minutes and dissociation was followed for a period of 10 minutes.
RSK specificity for Abcs35, along with 93H2 and Abcs25, also was confirmed in a cell-based binding assay using flow cytometry. […] As described above in Example 3, dose-dependent binding was evaluated.
(In flow cytometry, cells or beads pass a laser one at a time.)

Another test concerns the target T2, Human ROBO2 Ig1-Ig2-His (human, UniProt Q9HCK4 31-220).
T2 construct: the His tag is named only in the SPR paragraphs; the Octet and ELISA paragraphs print 'ROBO2 Ig1-Ig2' without a tag; also called ROBO2 Ig1-2; Human ROBO2 Ig 1,2
T2 sequence: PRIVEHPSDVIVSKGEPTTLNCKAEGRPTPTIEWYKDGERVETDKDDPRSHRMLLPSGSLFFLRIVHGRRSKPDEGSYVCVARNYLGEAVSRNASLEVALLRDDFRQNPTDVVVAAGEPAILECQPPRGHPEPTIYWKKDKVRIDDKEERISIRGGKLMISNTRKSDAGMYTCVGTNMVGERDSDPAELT
In words: SPR (Biacore T200), Abcs35 immobilized on a CM5 chip, ROBO2 Ig1-Ig2-His as analyte; column head kdis(1/s). The method, then: […] Association and dissociation were followed over time.
Based upon several criteria, Abcs25 and Abcs35 were selected for further characterization. Using flow cytometry, improvement in the binding EC₅₀ to human ROBO2 relative to the parental 93H2 was evaluated. Starting at 6.7 nM, 11-point, 3-fold dilution series were made for each antibody and used to stain HEK293 overexpressing human ROBO2 as described above for the ROBO2 fold selectivity (Example 2). […] In addition to measuring improved binding to human ROBO2, it was important to ensure that high affinity binding to both cynomolgus monkey ROBO2 and rat ROBO2 was maintained. Using HEK293 cells overexpressing either cynomolgus monkey ROBO2 or rat ROBO2, the relative dose-dependent binding of 93H2, Abcs25 and Abcs35 was evaluated as described above. High affinity binding to both cynomolgus monkey and rat ROBO2 was maintained in Abcs25 and Abcs35 (Table 4). […] Briefly, Abcs35 was immobilized to 300 resonance units (RU) on a CM5 chip. Association of ROBO2 Ig1-Ig2-His (ROBO2) was measured over 5 minutes and dissociation was followed for a period of 10 minutes.
(SPR reads the build-up and loss of mass on a sensor chip optically.)

B1: Abcs35 (antibody, human IgG1, kappa)
heavy: EVQLVQSGAEVKKPGASVKVSCKASGYTFTGYYMHWVRQAPGQGLEWMGWINPKNGDTEFPQKFQGRVTMTRDTSITTAYMDLSRLRSDDTAVYYCARESGDDAFDIWGQGTMVTVSSASTKGPSVFPLAPSSKSTSGGTAALGCLVKDYFPEPVTVSWNSGALTSGVHTFPAVLQSSGLYSLSSVVTVPSSSLGTQTYICNVNHKPSNTKVDKKVEPKSCDKTHTCPPCPAPEAAGAPSVFLFPPKPKDTLMISRTPEVTCVVVDVSHEDPEVKFNWYVDGVEVHNAKTKPREEQYNSTYRVVSVLTVLHQDWLNGKEYKCKVSNKALPAPIEKTISKAKGQPREPQVYTLPPSREEMTKNQVSLTCLVKGFYPSDIAVEWESNGQPENNYKTTPPVLDSDGSFFLYSKLTVDKSRWQQGNVFSCSVMHEALHNHYTQKSLSLSPGK
light: DIVMTQSPSSLSASVGDRVTITCRASQSISSYLNWYQQKPGKAPKLLIYAASSLQSGVPSRFSGSGSGTDFTLTISSLQPEDFATYYCQQSVGLFFGGGTKVEIKRTVAAPSVFIFPPSDEQLKSGTASVVCLLNNFYPREAKVQWKVDNALQSGNSQESVTEQDSKDSTYSLSSTLTLSKADYEKHKVYACEVTHQGLSSPVTKSFNRGEC
notes: fully human IgG1; VH of Ab96 with VL of Ab123
As usually defined, the koff is the first-order rate constant of dissociation. Read a high koff as a short-lived complex. Turning to B1, the binding result in test [1] was “no binding”. The molecule also returned a koff in the test with Human ROBO2 Ig1-Ig2-His of 0.00793 s⁻¹.
